Data taken from PMC10020564, “Distinct inter-domain interactions of dimeric versus monomeric α-catenin link cell junctions to filaments” (Communications Biology, 2023).

B1: human α-catenin (residues 22–906) (domain or fragment, UniProt P35221 22-906, looked up)
chain: TLAVERLLEPLVTQVTTLVNTNSKGPSNKKRGRSKKAHVLAASVEQATENFLEKGDKIAKESQFLKEELVAAVEDVRKQGDLMKAAAGEFADDPCSSVKRGNMVRAARALLSAVTRLLILADMADVYKLLVQLKVVEDGILKLRNAGNEQDLGIQYKALKPEVDKLNIMAAKRQQELKDVGHRDQMAAARGILQKNVPILYTASQACLQHPDVAAYKANRDLIYKQLQQAVTGISNAAQATASDDASQHQGGGGGELAYALNNFDKQIIVDPLSFSEERFRPSLEERLESIISGAALMADSSCTRDDRRERIVAECNAVRQALQDLLSEYMGNAGRKERSDALNSAIDKMTKKTRDLRRQLRKAVMDHVSDSFLETNVPLLVLIEAAKNGNEKEVKEYAQVFREHANKLIEVANLACSISNNEEGVKLVRMSASQLEALCPQVINAALALAAKPQSKLAQENMDLFKEQWEKQVRVLTDAVDDITSIDDFLAVSENHILEDVNKCVIALQEKDVDGLDRTAGAIRGRAARVIHVVTSEMDNYEPGVYTEKVLEATKLLSNTVMPRFTEQVEAAVEALSSDPAQPMDENEFIDASRLVYDGIRDIRKAVLMIRTPEELDDSDFETEDFDVRSRTSVQTEDDQLIAGQSARAIMAQLPQEQKAKIAEQVASFQEEKSKLDAEVSKWDDSGNDIIVLAKQMCMIMMEMTDFTRGKGPLKNTSDVISAAKKIAEAGSRMDKLGRTIADHCPDSACKQDLLAYLQRIALYCHQLNICSKVKAEVQNLGGELVVSGVDSAMSLIQAAKNLMNAVVQTVKASYVASTKYQKSQGMASLNLPAVSWKMKAPEKKPLVKREKQDETQTKIKRASQKKHVNPVQALSEFKAMDSI
notes: Modified pET28 vector; By the printed forward primer the residues GPHM would remain before T22 after PreScission cleavage (surmise); The dimer was used for the complex with F-actin; in the map only residues 710–871 are ordered; also called Δ1–21 α-catenin; human dimeric α-catenin Δ1–21; source: E. coli BL21(DE3), purified (HisTrap, PreScission cleavage, reverse HisTrap, Superdex S200); not shown: …
B2: human α-catenin Δ1–81 (domain or fragment, UniProt P35221 82-906, looked up)
chain: ESQFLKEELVAAVEDVRKQGDLMKAAAGEFADDPCSSVKRGNMVRAARALLSAVTRLLILADMADVYKLLVQLKVVEDGILKLRNAGNEQDLGIQYKALKPEVDKLNIMAAKRQQELKDVGHRDQMAAARGILQKNVPILYTASQACLQHPDVAAYKANRDLIYKQLQQAVTGISNAAQATASDDASQHQGGGGGELAYALNNFDKQIIVDPLSFSEERFRPSLEERLESIISGAALMADSSCTRDDRRERIVAECNAVRQALQDLLSEYMGNAGRKERSDALNSAIDKMTKKTRDLRRQLRKAVMDHVSDSFLETNVPLLVLIEAAKNGNEKEVKEYAQVFREHANKLIEVANLACSISNNEEGVKLVRMSASQLEALCPQVINAALALAAKPQSKLAQENMDLFKEQWEKQVRVLTDAVDDITSIDDFLAVSENHILEDVNKCVIALQEKDVDGLDRTAGAIRGRAARVIHVVTSEMDNYEPGVYTEKVLEATKLLSNTVMPRFTEQVEAAVEALSSDPAQPMDENEFIDASRLVYDGIRDIRKAVLMIRTPEELDDSDFETEDFDVRSRTSVQTEDDQLIAGQSARAIMAQLPQEQKAKIAEQVASFQEEKSKLDAEVSKWDDSGNDIIVLAKQMCMIMMEMTDFTRGKGPLKNTSDVISAAKKIAEAGSRMDKLGRTIADHCPDSACKQDLLAYLQRIALYCHQLNICSKVKAEVQNLGGELVVSGVDSAMSLIQAAKNLMNAVVQTVKASYVASTKYQKSQGMASLNLPAVSWKMKAPEKKPLVKREKQDETQTKIKRASQKKHVNPVQALSEFKAMDSI
notes: also called human dimeric α-catenin Δ1–81; human monomeric α-catenin Δ1–81; source: E. coli BL21(DE3) (said of all α-catenin constructs)
B3: full-length human α-catenin (residues 1–906) (natural protein, UniProt P35221 1-906, looked up)
chain: MTAVHAGNINFKWDPKSLEIRTLAVERLLEPLVTQVTTLVNTNSKGPSNKKRGRSKKAHVLAASVEQATENFLEKGDKIAKESQFLKEELVAAVEDVRKQGDLMKAAAGEFADDPCSSVKRGNMVRAARALLSAVTRLLILADMADVYKLLVQLKVVEDGILKLRNAGNEQDLGIQYKALKPEVDKLNIMAAKRQQELKDVGHRDQMAAARGILQKNVPILYTASQACLQHPDVAAYKANRDLIYKQLQQAVTGISNAAQATASDDASQHQGGGGGELAYALNNFDKQIIVDPLSFSEERFRPSLEERLESIISGAALMADSSCTRDDRRERIVAECNAVRQALQDLLSEYMGNAGRKERSDALNSAIDKMTKKTRDLRRQLRKAVMDHVSDSFLETNVPLLVLIEAAKNGNEKEVKEYAQVFREHANKLIEVANLACSISNNEEGVKLVRMSASQLEALCPQVINAALALAAKPQSKLAQENMDLFKEQWEKQVRVLTDAVDDITSIDDFLAVSENHILEDVNKCVIALQEKDVDGLDRTAGAIRGRAARVIHVVTSEMDNYEPGVYTEKVLEATKLLSNTVMPRFTEQVEAAVEALSSDPAQPMDENEFIDASRLVYDGIRDIRKAVLMIRTPEELDDSDFETEDFDVRSRTSVQTEDDQLIAGQSARAIMAQLPQEQKAKIAEQVASFQEEKSKLDAEVSKWDDSGNDIIVLAKQMCMIMMEMTDFTRGKGPLKNTSDVISAAKKIAEAGSRMDKLGRTIADHCPDSACKQDLLAYLQRIALYCHQLNICSKVKAEVQNLGGELVVSGVDSAMSLIQAAKNLMNAVVQTVKASYVASTKYQKSQGMASLNLPAVSWKMKAPEKKPLVKREKQDETQTKIKRASQKKHVNPVQALSEFKAMDSI
notes: Cloned into pGEX-6P-1; residues of the PreScission site may remain at the N-terminus after cleavage; The same protein elutes as a monomer peak and a dimer peak, which were pooled separately; also called human monomeric α-catenin; human dimeric α-catenin; source: E. coli BL21(DE3), purified (GST Sepharose, PreScission cleavage, Superdex S200; monomer and dimer peaks pooled separately); not shown: …

Molecular target: the molecule itself
Experiment: SEC-MALS; separately pooled dimer peak of a size exclusion run; Superdex S200 10/300 GL, 20 mM Tris-HCl pH 8, 150 mM NaCl, 0.2 mM TCEP, 0.5 ml/min

Stoichiometry N, 2:
B1
B2
B3
